Assays:
[1] = biological target: recombinant OX40-Fc protein (R & D, Cat 3388-OX) (human) (UniProt P43489); assay: blocking ELISA: plate-coated OX40-Fc, serially diluted antibody, then OX40L at 50 ng/ml, bound OX40L detected
[2] = biological target: human OX40 on the cell surface (activated human T cells; Jurkat-OX40-NF-kB-Luc cells overexpressing human OX40) (human) (UniProt P43489); assay: cell-based or functional assay
Chain of human OX40 on the cell surface (activated human T cells; Jurkat-OX40-NF-kB-Luc cells overexpressing human OX40) (human) (P43489 29-277): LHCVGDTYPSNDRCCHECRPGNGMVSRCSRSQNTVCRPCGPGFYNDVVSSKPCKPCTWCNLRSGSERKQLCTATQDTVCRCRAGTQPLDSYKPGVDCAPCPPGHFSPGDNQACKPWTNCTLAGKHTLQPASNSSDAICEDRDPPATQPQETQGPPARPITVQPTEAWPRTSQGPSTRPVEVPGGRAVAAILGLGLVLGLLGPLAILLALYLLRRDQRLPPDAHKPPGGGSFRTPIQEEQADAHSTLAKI

Chain of recombinant OX40-Fc protein (R & D, Cat 3388-OX) (human) (P43489 29-214): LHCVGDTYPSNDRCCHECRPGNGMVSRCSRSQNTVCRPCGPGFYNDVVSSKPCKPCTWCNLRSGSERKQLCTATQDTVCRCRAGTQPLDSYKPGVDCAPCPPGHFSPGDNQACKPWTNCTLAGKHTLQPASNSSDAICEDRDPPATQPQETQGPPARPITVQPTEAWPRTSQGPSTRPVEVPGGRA

B1: GBR830 (reference OX40 antagonist antibody) (antibody, INN chains, looked up, V domains shown)
VH: QVTLKESGPALVKPTQTLTLTCSFSGFSLSTSGMGVGWIRQPPGKALEWIAHIWWDDDKYYNTALKTRLTISKDTSKNQVVLTMTNMDPVDTATYYCARIDWDGFAYWGQGTLVTVSS
VL: EIVLTQSPATLSLSPGERATLSCRASSSVSYMHWYQQKPGQAPRPWIYATSNRATGIPARFSGSGSGTDYTLTISSLEPEDFAVYYCQQWSSNPWTFGQGTKVEIK
[1]
  IC50: 300 pM
  maximum inhibition rate: 50%
[2]
  IC50 of blocking the OX40L-mediated T cell activation (IFNy secretion): 1100 pM
